The supplement of paper PMC9732359
± gives the uncertainty stated by the source.

Assay: protein stability index of a GFP-peptide fusion (yeast GPS) (PSI 1-4); higher = more stable; sorted into four equal gates, so the index is relative within each strain
Settings: pdr5∆
How it was run: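 Yeast carrying a pooled library were grown to mid-log phase in leucine-free medium. Each library plasmid expresses Cherry and has a tiled 17-residue yeast protein peptide fused downstream of GFP. Cells were sorted into four equal gates by GFP/Cherry ratio, and plasmids from each gate were PCR-amplified, Illumina-sequenced and assigned to strains by barcode. Summing, across gates, the read frequency times the gate number gave each peptide's protein stability index.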

Sequence	protein stability index
YDRQLSSLFLDGLEKAA [FAS2]	2.93 ± 0.074

Same assay, conditions: san1∆

Sequence	protein stability index
VRAVSITSFGFGQKGGQ [FAS2]	1.74 ± 0.21
VRCKDCGHRILLKARTK [RPC10]	2.56 ± 0.1
VRDKLDEYQAAVEQRKK [DPB4]	3.31 ± 0.055
VRDPWSIDFRTYRCSIK [SRB2]	1.47 ± 0.13
VRIIKHTLDIINVLTDQ [RPS5]	2.62 ± 0.053
VRIMKAKRNLPHTTLVN [CDC53]	1.53 ± 0.16
VRKYDLNICRQCFREKA [RPS29B]	2.02 ± 0.19
VRRRFARGMTSKPAGFM [RPS15]	2.94 ± 0.1
VRSGVSKSAPSKKISNT [YAR002W/NUP60]	3.26 ± 0.049
VRTDTTYPAGFMDVITL [RPS4A]	2.92 ± 0.1
VRVRTTKIPQIGDKFAS [RPB2]	3.13 ± 0.064
VSIRQNQYKLVFYQVTP [RPL22B]	2.15 ± 0.06
VSKADILLSHHRASPAD [POP5]	3.18 ± 0.054
VSKPAFSFGAKANEKKE [YJL041W/NSP1]	2.95 ± 0.11
VSLLKKNWQNVGSLVVK [RPL1A]	1.36 ± 0.12
VSNISCLTGTVAARMFH [ECM29]	2.28 ± 0.087
VSPTNVMGTPLTNMMSP [PGD1]	2.92 ± 0.091
VSSAKFSGKYLKYLTKK [RPL22B]	2.59 ± 0.12
VSSPESEKNKRQSKSSG [ITC1]	2.98 ± 0.045
VSSSSRHHRKTEKEEDA [ISW2]	2.05 ± 0.058
VSVIAPESQGQHEQQKQ [YMR153W/NUP53]	2.91 ± 0.068
VSVPVSGQKTNRQVMHK [SIR3]	3.05 ± 0.13
VTDDDRLWLKKVMEEEE [POP8]	1.57 ± 0.089
VTEDGSIVTVVSSAKFS [RPL22B]	2.99 ± 0.1

Sequence	protein stability index
VTFSFFNPQDTEENIKG [RRP45]	3.08 ± 0.08
VTGGKKALVLFVPVPAL [RPS7B]	2.14 ± 0.11
VTKLNVLVDEIKSQYYS [YIL149C/MLP2]	2.35 ± 0.074
VTLYWNNAKLLTFMTCN [ESC2]	2.34 ± 0.045
VTNSLSNEEKEKIKMKL [GAL11]	3.1 ± 0.13
VTNSMRQTLAPYAVLSQ [YJR042W/NUP85]	2.53 ± 0.051
VTRFTTWNGSPFDNSTE [YJL039C/NUP192]	2.3 ± 0.099
VTRKQEDARRNPNPSSQ [RPC37]	3.19 ± 0.081
VTTFLNWCAEPEHDERK [CYT1]	3.08 ± 0.18
VTTFVFTGQGSQEQGMG [FAS1]	3.48 ± 0.14
VTVDQYVNVAISIYNML [SSN2]	1.52 ± 0.12
VTVSIKSRIVKVVGPRG [RPL9A]	2.47 ± 0.052
VVDILSANGYLNATTAM [BRR2]	3.17 ± 0.16
VVEKKTVGSSNGGLIHV [RPO21]	2.8 ± 0.053
VVRAASSLASQDVDFYK [RRP6]	3.06 ± 0.16
VVVDTVECAQHCIDYLR [SMC4]	3.26 ± 0.074
VYRFVTENAIEEKVIER [ISW2]	2.5 ± 0.25
WADIFAKALDGQNLKDL [RPP1A]	2.58 ± 0.24
WAMQGISYLQEVQCTST [PCI8]	2.19 ± 0.16
WAVISAFFREKGLVSQQ [RPB2]	3.29 ± 0.078
WCCRSGSAADTQAIADI [PRE3]	2.85 ± 0.11
WDGVIPTPAIIKPKPLW [RPO21]	2.41 ± 0.096
WDHPVIAGVITRSKRLS [CSN12]	3.13 ± 0.11
WDYLQLTVAMYINSDSV [RPO31]	1.64 ± 0.25

Sequence	protein stability index
WHGVHRNPARLMETLRT [RPB2]	1.55 ± 0.18
WIWDMNVHGSLEPFLLM [BRR2]	1.72 ± 0.2
WKAPSSIVLDSEHFDVN [DIS3]	3.28 ± 0.056
WKSPEWIQVFGLRTENV [MED6]	2 ± 0.13
WLIEGKLYVDAVHSIIA [YDL116W/NUP84]	1.07 ± 0.28
WPIVNSKVYFNNQSKEK [RPN12]	2.67 ± 0.21
WQEYSSVFKGGMQNLIK [SRP14]	2.92 ± 0.14
WQVIITDDQGRVIDDNN [SIR3]	3.31 ± 0.08
WRAHDSSIVAIDWASPE [YGL100W/SEH1]	2.83 ± 0.078
WRFLQILRNGIDYLQRN [POP1]	2.97 ± 0.052
WSCIVVENWIIDDKGVL [ITC1]	2.71 ± 0.12
WTELCQREFKEIMEERN [NNF1]	3.13 ± 0.072
WTRGTGLMSANNIIAEG [FAS2]	3.06 ± 0.093
WVIRKQRRTNNSGVGSA [MED6]	2.58 ± 0.11
WWTNSHHDGKLWNLNAY [PRP8]	2.98 ± 0.082
YAKSEFDNVASVFMPLI [ECM29]	3.08 ± 0.039
YALAAKDRFDIDEKSQF [RPN2]	1.93 ± 0.17
YAQRIGSGAPVYLTAVL [HTA1]	2.53 ± 0.097
YASLKLPNQIPGEYITT [YMR129W/POM152]	2.07 ± 0.057
YDIVKFLTVSKLWAEII [GRR1]	2.18 ± 0.048
YDKLPAGQNATVAVMSY [RET1]	1.33 ± 0.13
YDLVILKSGLPLSGLLF [YMR129W/POM152]	3.51 ± 0.049
YDPQRDKRFSGSLKLPN [RPL1A]	3.02 ± 0.052
YDRQLSSLFLDGLEKAA [FAS2]	2.79 ± 0.095

Same assay, conditions: ubr1∆

Sequence	protein stability index
VRAVSITSFGFGQKGGQ [FAS2]	3.31 ± 0.27
VRCKDCGHRILLKARTK [RPC10]	2.87 ± 0.072
VRDKLDEYQAAVEQRKK [DPB4]	3.33 ± 0.073
VRDPWSIDFRTYRCSIK [SRB2]	2.31 ± 0.083
VRIIKHTLDIINVLTDQ [RPS5]	2.4 ± 0.044
VRIMKAKRNLPHTTLVN [CDC53]	1.77 ± 0.072
VRKYDLNICRQCFREKA [RPS29B]	2.49 ± 0.11
VRRRFARGMTSKPAGFM [RPS15]	3.07 ± 0.075
VRSGVSKSAPSKKISNT [YAR002W/NUP60]	3.38 ± 0.056
VRTDTTYPAGFMDVITL [RPS4A]	2.78 ± 0.098
VRVRTTKIPQIGDKFAS [RPB2]	2.66 ± 0.035
VSEKAFLLTQSKVSIEQ [RPN7]	2.8 ± 0.14
VSIRQNQYKLVFYQVTP [RPL22B]	1.88 ± 0.064
VSKADILLSHHRASPAD [POP5]	2.91 ± 0.1
VSKPAFSFGAKANEKKE [YJL041W/NSP1]	2.94 ± 0.16
VSLLKKNWQNVGSLVVK [RPL1A]	1.32 ± 0.053
VSNISCLTGTVAARMFH [ECM29]	2.19 ± 0.045
VSPTNVMGTPLTNMMSP [PGD1]	3.26 ± 0.093
VSSAKFSGKYLKYLTKK [RPL22B]	2.66 ± 0.18
VSSPESEKNKRQSKSSG [ITC1]	3.14 ± 0.038
VSSSSRHHRKTEKEEDA [ISW2]	2.86 ± 0.054
VSVIAPESQGQHEQQKQ [YMR153W/NUP53]	2.94 ± 0.068
VSVPVSGQKTNRQVMHK [SIR3]	2.86 ± 0.17
VSYKDYSIFLENENILI [SMC1]	2.59 ± 0.086
VTDDDRLWLKKVMEEEE [POP8]	2.07 ± 0.07
VTEDGSIVTVVSSAKFS [RPL22B]	2.87 ± 0.087

Sequence	protein stability index
VTFSFFNPQDTEENIKG [RRP45]	3.19 ± 0.076
VTGGKKALVLFVPVPAL [RPS7B]	1.52 ± 0.054
VTKLNVLVDEIKSQYYS [YIL149C/MLP2]	2.28 ± 0.037
VTLYWNNAKLLTFMTCN [ESC2]	2.57 ± 0.029
VTNSMRQTLAPYAVLSQ [YJR042W/NUP85]	2.62 ± 0.048
VTRFTTWNGSPFDNSTE [YJL039C/NUP192]	2.41 ± 0.067
VTRKQEDARRNPNPSSQ [RPC37]	3.54 ± 0.061
VTTFLNWCAEPEHDERK [CYT1]	3.15 ± 0.077
VTTFVFTGQGSQEQGMG [FAS1]	3.68 ± 0.18
VTVDQYVNVAISIYNML [SSN2]	1.44 ± 0.052
VTVSIKSRIVKVVGPRG [RPL9A]	2.75 ± 0.032
VTYSRVSKKVDVRRLKK [BRN1]	3.23 ± 0.15
VVDILSANGYLNATTAM [BRR2]	3.06 ± 0.2
VVEKKTVGSSNGGLIHV [RPO21]	3 ± 0.055
VVRAASSLASQDVDFYK [RRP6]	1.48 ± 0.089
VVVDTVECAQHCIDYLR [SMC4]	3.01 ± 0.1
VYRFVTENAIEEKVIER [ISW2]	2.7 ± 0.063
WADIFAKALDGQNLKDL [RPP1A]	2.94 ± 0.2
WAMQGISYLQEVQCTST [PCI8]	3.02 ± 0.099
WAVISAFFREKGLVSQQ [RPB2]	3.14 ± 0.078
WCCRSGSAADTQAIADI [PRE3]	2.93 ± 0.077
WDGVIPTPAIIKPKPLW [RPO21]	2.06 ± 0.12
WDHPVIAGVITRSKRLS [CSN12]	3.02 ± 0.068
WDYLQLTVAMYINSDSV [RPO31]	1.58 ± 0.071
WHGVHRNPARLMETLRT [RPB2]	1.2 ± 0.045
WIWDMNVHGSLEPFLLM [BRR2]	1.81 ± 0.077

Sequence	protein stability index
WKAPSSIVLDSEHFDVN [DIS3]	3.33 ± 0.052
WKSPEWIQVFGLRTENV [MED6]	2.35 ± 0.072
WLIEGKLYVDAVHSIIA [YDL116W/NUP84]	1.1 ± 0.095
WPIVNSKVYFNNQSKEK [RPN12]	3.03 ± 0.13
WQEYSSVFKGGMQNLIK [SRP14]	3.16 ± 0.17
WQGKPVFIRHRTPHEIQ [RIP1]	1.68 ± 0.17
WQVIITDDQGRVIDDNN [SIR3]	3.52 ± 0.073
WRAHDSSIVAIDWASPE [YGL100W/SEH1]	2.79 ± 0.068
WRFLQILRNGIDYLQRN [POP1]	2.72 ± 0.048
WSCIVVENWIIDDKGVL [ITC1]	2.95 ± 0.063
WSWDIAVDNCAICRNHI [HRT1]	2.04 ± 0.23
WTELCQREFKEIMEERN [NNF1]	3.2 ± 0.074
WVIRKQRRTNNSGVGSA [MED6]	2.8 ± 0.14
WVLHRDLKPANIMVTID [SSN3]	2.48 ± 0.14
WWTNSHHDGKLWNLNAY [PRP8]	2.45 ± 0.14
YAKSEFDNVASVFMPLI [ECM29]	3.09 ± 0.046
YALAAKDRFDIDEKSQF [RPN2]	2.66 ± 0.082
YAQRIGSGAPVYLTAVL [HTA1]	2.35 ± 0.051
YASLKLPNQIPGEYITT [YMR129W/POM152]	2.09 ± 0.036
YDIVKFLTVSKLWAEII [GRR1]	2.44 ± 0.032
YDKLPAGQNATVAVMSY [RET1]	1.18 ± 0.048
YDLVILKSGLPLSGLLF [YMR129W/POM152]	2.11 ± 0.18
YDPQRDKRFSGSLKLPN [RPL1A]	3.08 ± 0.048
YDRQLSSLFLDGLEKAA [FAS2]	2.95 ± 0.079
